# Assay results published in a protein production outcome set (Wang et al. 2014).
# Assay: label from the status in PepcDB records
row,Sequence,protein production
1,MAVQRVQETQRHSSRVLVPQHAGQFHPVGLRHLSTGPGLHRRSVLRSARVLAKSSIDQPPGQHAQGAVMLRTPFSPRLEGWLLVALAVLLIGAGLGMRQPQNVDEERFLGVALEMLQNGSWFVPHRAAEIYADKPPLFMWTVAFFIWLTGSPNIALYLPGLLSAGTITAVLYDLGNRLWERRIGRYAALLFLATYQTYSILRTGQIDSFLCLWVALGFYGLVRHLLLGPAWGWFYFSCAAMGLGIISKGVGFVPALMLIPYAYAVRKNWHGVVRMPGQAARWALGLLVTLIACCLWLVPMVISVVRDGGPEGFAYLHEILLHQTANRYASAWDHREPFWYFLVNVIPQYWLPLVFALPWLIPAWRRQLSKQDGRVLVLLGWVLLVLLFFSLSSGKRKLYIFPALPGLVLVAAPLVPWLLRRWFRERVLARRIVPTIVVVWLALWFARGFIEPVVEGENPHKELMEQAAEVTHGADLVLVNWREGHWLYARQPMVHFGFAHALANERAASWLREHPGTFALVPGELLANCFLPEKAHPLGKTSRADWFLVDAQADNGVCRPERPPEVYRFAWKQNAQ,failed
2,MSLTASDDLPGVLIVEDGRLAAATLRIQLESLGYDVLGVFDNGEEAVRCAPDLRPDIALVDIMLCGALDGVETAARLAAGCNLPIIFITSSQDVETFQRAKRVNPFGYLAKPVAADTLHRSIEMAIHKKKLEEGHHHHHH,not failed
3,MKKIEIFDPAMCCSTGVCGPSVDPELIRISVAVNNLKNKGIDVTRYNLASEPDAFANNGVISQLLTDKGPDVLPVTLVDGKVVKEKSHLTNEELTQLTDITEEELSQKPVVRLKLNVKK,not failed
4,DIQVITQTGVPGQPLNFKAEPESETSILLSWTPPRSDTIANYELVYKDGEHGEEQRITIEPGTSYRLQGLKPNSLYYFRLAARSPQGLGASTAEISARTMQS,not failed
5,MGDRVNLEGIVIDIEQTNDQLSFNVTDENESVPVVYDGPMPETMSVGRTVVAKGYYNGSVVEAESLSIRAHEGLEHHHHHH,not failed
6,MSVQTIERLQDYLLPEWVSIFDIADFSGRMLRIRGDIRPALLRLASRLAELLNESPGPRPWYPHVASHMRRRVNPPPETWLALGPEKRGYKSYAHSGVFIGGRGLSVRFILKDEAIEERKNLGRWMSRSGPAFEQWKKKVGDLRDFGPVHDDPMADPPKVEWDPRVFGERLGSLKSASLDIGFRVTFDTSLAGIVKTIRTFDLLYAEAEKGS,not failed
7,MTLTLNRQLLTSRQILVAFSGGLDSTVLLHQLVQWRTENPGVALRAIHVHHGLSANADAWVTHCENVCQQWQVPLVVERVQLAQEGLGIEAQARQARYQAFARTLLPGEVLVTAQHLDDQCETFLLALKRGSGPAGLSAMAEVSEFAGTRLIRPLLARTRGELVQWARQYDLRWIEDESNQDDSYDRNFLRLRVVPLLQQRWPHFAEATARSAALCAEQESLLDELLADDLAHCQSPQGTLQIVPMLAMSDARRAAIIRRWLAGQNAPMPSRDALVRIWQEVALAREDASPCLRLGAFEIRRYQSQLWWIKSVTGQSENIVPWQTWLQPLELPAGLGSVQLNAGGDIRPPRADEAVSVRFKAPGLLHIVGRNGGRKLKKIWQELGVPPWLRDTTPLLFYGETLIAAAGVFVTQEGVAEGENGVSFVWQKTLS,not failed
8,LRELDWFARRGLKEPNLAELLDLVALGSVADVVPLDANNRILVHQGLARIRAGRARPGLRALLEVAGRPPVRITSTDLGFILGPRLNAAGRLDDMSLGIECLLCDDEALARDMAVQLDQLNQDRKAIEQGMQREALAQLKELSLEQLPFGLCLFDADWHQGVIGILASRLKERYHRPTIAFADAGDGSLKGSARSIPGFHIRDALDAVAARHPGLISKFGGHAMAAGLSLPQENFGAFSAAFDAEVRRQLAEEDLAGRLLSDGQLSIQEFHLELARALRQAGPWGQHFPEPMFHGVFQLVQQRIVGERHLKLVLKSECGSLQLDGIAFNIDREQWPNPTVRWAELAYKLDVNEFRGQESVQLMIVHMAPR,failed
9,MAVRQVTVGYSDGTHKTMPVRCDQTVLDAAEEHGVAIVNECQSGICGTCVATCTAGRYQMGRTEGLSDVERAARKILTCQTFVTSDCRIELQYPVDDNAALLVTGDGVVTAVELVSPSTAILRVDTSGMAGALRYRAGQFAQLQVPGTNVWRNYSYAHPADGRGECEFIIRLLPDGVMSNYLRDRAQPGDHIALRCSKGSFYLRPIVRPVILVAGGTGLSAILAMAQSLDADVAHPVYLLYGVERTEDLCKLDELTELRRRVGRLEVHVVVARPDPDWDGRTGLVTDLLDERMLASGDADVYLCGPVAMVDAARTWLDHNGFHRVGLYYEKFVASGAARRRTPARLDYAGVDIAEVCRRGRGTAVVIGGSIAGIAAAKMLSETFDRVIVLEKDGPHRRREGRPGAAQGWHLHHLLTAGQIELERIFPGIVDDMVREGAFKVDMAAQYRIRLGGTWKKPGTSDIEIVCAGRPLLEWCVRRRLDDEPRIDFRYESEVADLAFDRANNAIVGVAVDNGDADGGDGLQVVPAEFVVDASGKNTRVPEFLERLGVGAPEAEQDIINCFYSTMQHRVPPERRWQDKVMVICYAYRPFEDTYAAQYYTDSSRTILSTSLVAYNCYSPPRTAREFRAFADLMPSPVIGENIDGLEPASPIYNFRYPNMLRLRYEKKRNLPRALLAVGDAYTSADPVSGLGMSLALKEVREMQALLAKYGAGHRDLPRRYYRAIAKMADTAWFVIREQNLRFDWMKDVDKKRPFYFGVLTWYMDRVLELVHDDLDAYREFLAVVHLVKPPSALMRPRIASRVLGKWARTRLSGQKTLIARNYENHPIPAEPADQLVNA,failed
10,MSVQLKCDAVNCVYNRSHLCSAEEIEVQGGETTGGDATFCGTFSSKSLGNFVSSLGNMNYSGSLKQAVSAEPIMDPKVHCNAVNCTYNDQRYCHADQVEIRNEVSHTAEETECQTFYPKMSLEHHHHHH,failed
11,MHLSLALLVLLFSLILSNVINRIFPRLPLPLIQIIFGVGIGFLLKGEVFELETELFLAFIIAPLLFREGEESDITSILRNWKLILFLIFPVIFVSTLGIGYLAKAVLPASVPLSACLALGAALGPTDFVAYSAISKRFSFPKWISYILQGEGLLNDASGLVAFRVAVTALTTGSFSLLDASWNLVISVIGGFLVGLITALLNRLFLTILDNMDAADVTGALLLELVLPIPSYFVAEEIHVSGIIAVVVAGISLASRFKKITVFDAKLDSVSHTIWGTITFVLNGMVFFLLGTELPTLATPVLSSSTYDTLWMLLAIVLLTAIMFGIRFVMISAVFAQRAWRTKRSLKKIWKVATILTFSGVKGTVSIATILLLPVANMTALEHSLLTFTVAGVTLLSFLIGILILPRLATGPAHTTNHYMQIAILNDVVRELEKDLKQSANQGAVYATIDNYNQRLEDLILEQESNDVKEELANIRIMIMEIESEGLEYAYKKGKISELEYNLYQRYIKGLERRINRGFVSSLSYASAVFVLGLRRILHLAFTFKFRFEQEENRRGPQLTEENRDHMTELYLTNTEQVLEALSNLEGVYHSDLLSYLKRSRIREAEIIQSGAFVERVITHLNPDYVDEMLRGYFLERKIIIEYEQAGRISSRYAKQLRKEVNTLENYSLKETSNTLIYDMINLARRGA,failed
12,MSVGTSSAPGARQVPRPLAPRTSGDPADLGIDPDQLPDGLVVADEHGRVVCFNAAAVRITATPAAEALGQLLESALPLEDLEGRRWWQLTDPYGGLAIRVRQPERNLLLPGGREVLVTARYVRAERLGPVHRVVVTLRDTEARRRTERSHAELIATVAHELRSPLTSVKGFTATLLAKWERFTDDQKRLMLETVDADADRVTRLIAELLDISRIDSGRLEVRRQPVDIGAAVGRHIQAYVASGLEADRFLLRLAQPLPDLWADPDKVDQVLSNLLENAVRHGEGTVTIDVTPTASPREGEDTGTSVTVSDEGAGIPEESMNRVFTRFWRGSKRGGTGLGLYIVKGIVEAHGGTITVGRAPGGGAEFRFTLPVAAPAYLT,failed
13,MYEHQTYEAILVRMLARVPETIDKREGSLIYDALAPGAAELAQAYAELVVNNNLSFADTASGEFLTRRAAEFGIKRKVATKAWRRGGFLDSNNALLNIPLGSRYSIGGLNYTAIEQISTGAYVLECETAGTAGNQQFGDLLPIAYVNSLARAELTEVLVPGEDEETDEALLSRYYETVNEPAFGGNMADYRQKVNAINGVGGTKVFPTWAGGGTVKCTIIASDWAKPSPELVNEVQSTMDPEENQGMGLGQAPIGHAVTIAGVDKVTVDVETTLTLAPGVTPGQVQSDVEAILDAYLLEQRKTWAAQTQIIIRMAQIDARMLTVQGVEDVTGTKLNGTEANFLLDEEEIPILGTVIINELEHHHHHH,failed
14,MILEFKSEKKMINFSKSFFYPLPIGKIFVLSGDMGSGKTSFLKGLALNLGISYFTSPTYNIVNVYDFINFKFYHIDLYRVSSLEEFELVGGLEILMDLDSIIAIEWPQIALSIVPKDRLFSLTFKIVGSGRVVELNGLEHHHHHH,not failed
15,MGFSFLLATVQKERMKRRSRTRSRSRRRAKQDPKTWVARYIPQDLLIEILTRLPPKSVMRFKCVSKFWSSLLSSRYFCNRFLIVPSQPQPSLYMCLLDRYNYSKSLILSSAPSTSPYSFVFDQDLTIRKMGGFFLRILRGFIFFTRNLKARIYNPTTRQLVILPTIKESDIIAGPPYNILYFICHDPVNDRYKLLCTVSYASDNDLQNLKSELWIFVLEAGGSWKRVANEFPHHVPSHLDLNMNGVLYFLAWTDPHTCMLVSFDVRSEEFNTMQVPRNAGDTLPRQEKGVVNRVW,failed
16,MLISAIIGGVEYINLYRFPEIPLVGFTLIGVVLSIFLGFKNTACYDRWWEARKLWGVLIATSRHFDRDCRILTQARRERVIQHVIVFANVLRDRLRRQTANPTELIQTSGMSQQALTQLYQQNNAPQYTLSLIQWELLQALKEGEISDIIYAQMNKNVADLSVVQTGCDRIANTPIPFAYSVLLNRTVYFFCFMLPFSLGSLLGLATPLLVGILAYTFLGLDALSTEIEEPFGTQSNDLPLDAMVRSIEIELLGTLGKPTPPPIQAQDNNLL,failed
17,TRNTLDIRTVAHREADGSYRIKGEKFYSTGALFAHWVSIKALDDNGKTVMAFIERGTQGLRIVDDWSGFGQRTTASGTVLLDDVSVPAKQVVP,failed
18,MEPCLHPTLVDETSLVLYLDLARETGYRYVDVPFHWLEAEAERHGDAAVEAMFQRRGLVLANLGLPLNLYDSEPVFLRELSLLPDRARLCARLGARSVTAFLWPSMDEEPVRYISQLARRIRQVAVELLPLGMRVGLEYVGPHHLRHRRYPFVQSLADLKTFWEAIGAPNVGALVDSYHWYTAGEHEDDLAQLPPEKVVYVHINDTRDAPEDAHDGKRLLPGDGRIPLVPFLRGLYLAGYRGPVAAEVLHETPLDGTGESRARLVRERLEKLIALAKGEN,not failed
19,MSRQANRGTESKKMSSELFTLTYGALVTQLCKDYENDEDVNKQLDRMGYNIGVRLIEDFLARSNVGRCHDFRETADVIAKVAFKMYLGITPSITNWSPAGDEFSLILENNPLVDFVELPDNHSALIYSNLLCGVLRGALEMVQMAVEAKFVQDTLKGDGVTEIRMRFIRRIEDNLPAGEE,not failed
20,MTNMKTHAREWAALDKSACFLFCSGDNDVAQQLGHAIGDLGLLTQELPEPEQLARRLADIDPQVVFLDFTGGQADPGKLLLAADLARVLARVAPAVPRVAVGYLAQPDGAIAALRAGVSDFVDPSVSPDEVHGVVQRLVSNRRIGGGSGGEHRSVLILGARPGVGASTLAVHMAGLTQERMAQAALARQGAVAGKPARSAEVMAAQLPLSDRVGVLDLGWPIGDCLLYLNISSDFDFAEAARNLSRLDGTLLNSAMAHTASGVSALALPREVEQVRALSPNDSLLLFERLRQHYGTLVTDAGGLANPEFVAKLARASHETWLVTDQSVSALVSLAGAVQELEQFHVEKSALRLVVNRYDERYGMSAAQIAERFGLELAGTLPDRTLSLMVCTNQGRLLHEQAERDIYVRAVQTLVDRLLAGSEAPRARHNSWLANWLPGVHRLTNVVESLEHHHHHH,failed
21,MHGTNPVPKLPKKIPMQADPNAAPPALDDETLAFAARLFQYARMGHAEELAELFGQGLPANLRNDKGDSLLMLAAYNGQAATARVILEAGGDPELANDRGQTPLAGAAFKGDADIVRLLLEHGAQVDGAGDGTRTALMVAAMFDRTEIVDLLLAQGADPSRRDASGMSAADMARQMGAQNTPAQLERAQGDRAG,failed
